Substrate in data set [1]: CC1=C(CO)C2=C(C)C3(CC3)[C@@](C)(O)C(=O)C2=C1
The experiment in a line: (§1) Affinity towards rat NADP-dependent AOR, leukotriene B4 12-hydroxydehydrogenase.

Substrate in data set [2]: CC1=CC2=C(C)C3(CC3)[C@@](C)(O)C(=O)C2=C1
The data set is described as §1.

Substrate in data set [3]: CC1=C(CO)C2=C(C)C3(CC3)[C@](C)(O)C(=O)C2=C1
The description is as §1.

Substrate in data set [4]: CC1=CC2=C(C)C3(CC3)[C@](C)(O)C(=O)C2=C1
The data set is described as §1.

B1: Prostaglandin reductase 1 (Rattus norvegicus), P97584 (protein)
chain: MVQAKTWTLKKHFEGFPTDSNFELRTTELPPLNNGEVLLEALFLSVDPYMRVAAKKLKEGDSMMGEQVARVVESKNSAFPTGTIVVALLGWTSHSISDGNGLRKLPAEWPDKLPLSLALGTVGMPGLTAYFGLLDICGLKGGETVLVNAAAGAVGSVVGQIAKLKGCKVVGTAGSDEKVAYLKKLGFDVAFNYKTVKSLEEALRTASPDGYDCYFDNVGGEFSNTVILQMKTFGRIAICGAISQYNRTGPCPPGPSPEVIIYQQLRMEGFIVTRWQGEVRQKALTDLMNWVSEGKIRYHEYITEGFEKMPAAFMGMLKGDNLGKTIVKA
For orientation: Km means the substrate concentration at which the rate is half of its maximum. Regarding B1, the Km in data set [1] came to 213 µM; in data set [2], 538 µM; in data set [3], 243 µM; in data set [4], 465 µM.

These data come from ChEMBL document CHEMBL1146070, “Investigating the role of stereochemistry in the activity of anticancer acylfulvenes: synthesis, reductase-mediated bioactivation, and cellular toxicity” (J Med Chem, 2006).
